2 molecules from patent US20050261472A1, “Binding moieties for fibrin” (Dyax Corp., priority 1999, published 2005) can be followed below.

The target in assay [1] is T1, DD(E) (Homo sapiens, UniProt P02671+P02675+P02679).
T1 construct: host or cells: purchased fibrinogen clotted with thrombin, digested with plasmin, then purified by ammonium sulfate cuts and Sephacryl S200
Nature of the assay: dissociation constant against fibrin-derived polypeptide DD(E). It counts as binding. The following applies: read-out: Kd DD(E).

Assay [2] deals with T2, fibrinogen (Homo sapiens, UniProt P02671+P02675+P02679).
T2 sequence (P02671 20-644 isoform P02671-2 limits assumed): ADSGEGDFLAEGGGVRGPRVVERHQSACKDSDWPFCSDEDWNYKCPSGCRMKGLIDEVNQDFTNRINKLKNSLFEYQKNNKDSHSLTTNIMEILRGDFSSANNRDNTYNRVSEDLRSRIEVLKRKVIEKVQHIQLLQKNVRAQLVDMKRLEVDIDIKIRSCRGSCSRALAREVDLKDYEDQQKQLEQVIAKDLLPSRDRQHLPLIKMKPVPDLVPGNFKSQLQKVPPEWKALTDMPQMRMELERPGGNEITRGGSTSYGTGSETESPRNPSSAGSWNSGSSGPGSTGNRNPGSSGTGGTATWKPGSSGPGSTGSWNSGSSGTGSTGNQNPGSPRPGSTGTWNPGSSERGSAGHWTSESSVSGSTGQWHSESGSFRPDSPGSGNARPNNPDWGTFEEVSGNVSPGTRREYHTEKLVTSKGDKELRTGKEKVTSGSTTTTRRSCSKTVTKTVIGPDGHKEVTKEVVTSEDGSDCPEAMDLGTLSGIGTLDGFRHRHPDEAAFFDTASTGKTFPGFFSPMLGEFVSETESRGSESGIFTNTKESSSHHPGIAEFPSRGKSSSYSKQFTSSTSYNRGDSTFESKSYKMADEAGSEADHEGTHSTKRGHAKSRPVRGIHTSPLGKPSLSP
T2 sequence (P02675 31-491): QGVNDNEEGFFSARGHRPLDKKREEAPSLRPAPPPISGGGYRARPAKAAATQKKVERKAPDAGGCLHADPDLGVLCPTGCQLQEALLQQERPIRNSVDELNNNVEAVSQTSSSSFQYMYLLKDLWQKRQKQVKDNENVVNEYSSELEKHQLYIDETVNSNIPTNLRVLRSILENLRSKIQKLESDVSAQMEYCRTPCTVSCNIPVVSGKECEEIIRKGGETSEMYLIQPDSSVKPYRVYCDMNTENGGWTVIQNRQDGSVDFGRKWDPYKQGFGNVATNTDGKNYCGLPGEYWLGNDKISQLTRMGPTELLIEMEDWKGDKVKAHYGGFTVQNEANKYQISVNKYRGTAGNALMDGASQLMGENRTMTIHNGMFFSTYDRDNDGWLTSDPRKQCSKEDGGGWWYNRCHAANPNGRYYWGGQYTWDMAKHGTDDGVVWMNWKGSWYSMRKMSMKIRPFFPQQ
T2 sequence (P02679 27-437 isoform P02679-2 limits assumed): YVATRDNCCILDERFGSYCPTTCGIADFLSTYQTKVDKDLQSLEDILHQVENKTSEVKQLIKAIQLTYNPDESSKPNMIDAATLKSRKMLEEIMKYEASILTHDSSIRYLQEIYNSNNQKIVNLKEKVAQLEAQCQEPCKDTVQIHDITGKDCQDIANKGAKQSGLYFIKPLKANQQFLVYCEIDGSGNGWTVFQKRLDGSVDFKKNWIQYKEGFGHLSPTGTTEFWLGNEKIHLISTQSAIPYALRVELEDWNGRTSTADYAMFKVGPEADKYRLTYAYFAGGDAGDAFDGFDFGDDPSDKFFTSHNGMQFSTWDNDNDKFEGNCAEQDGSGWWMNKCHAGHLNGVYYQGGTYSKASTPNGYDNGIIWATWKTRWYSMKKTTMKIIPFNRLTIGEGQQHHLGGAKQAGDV
Nature of the assay: binding affinity by equilibrium dialysis. The settings on record: 190 μM vs. 2.7 μM. On the procedure:
(§1) A solution of fibrinogen (10 mg/ml) was mixed with the MR labeled peptide of Example 11 designated Gd-DTPA-Pep1, at concentrations of 10, 50 and 100 μM. The fibrinogen/peptide solution was placed on one side of a dialysis membrane in an equilibrium dialysis apparatus. The solution was allowed to equilibrate with an equal volume of buffer on the opposite side of the membrane.
On the technique in general: In equilibrium dialysis only unbound substance equilibrates across the membrane.

Assay [3] concerns the target T3, dried fibrin (UniProt P02671 36-629; P02675 45-491; P02679 27-437, limits assumed).
T3 construct: Polymerised fibrin made in 96-well plates from fibrinogen and thrombin, dried at 37 C and rehydrated; also called (rehydrated) dried fibrin; fibrin target
T3 sequence (looked up) 1: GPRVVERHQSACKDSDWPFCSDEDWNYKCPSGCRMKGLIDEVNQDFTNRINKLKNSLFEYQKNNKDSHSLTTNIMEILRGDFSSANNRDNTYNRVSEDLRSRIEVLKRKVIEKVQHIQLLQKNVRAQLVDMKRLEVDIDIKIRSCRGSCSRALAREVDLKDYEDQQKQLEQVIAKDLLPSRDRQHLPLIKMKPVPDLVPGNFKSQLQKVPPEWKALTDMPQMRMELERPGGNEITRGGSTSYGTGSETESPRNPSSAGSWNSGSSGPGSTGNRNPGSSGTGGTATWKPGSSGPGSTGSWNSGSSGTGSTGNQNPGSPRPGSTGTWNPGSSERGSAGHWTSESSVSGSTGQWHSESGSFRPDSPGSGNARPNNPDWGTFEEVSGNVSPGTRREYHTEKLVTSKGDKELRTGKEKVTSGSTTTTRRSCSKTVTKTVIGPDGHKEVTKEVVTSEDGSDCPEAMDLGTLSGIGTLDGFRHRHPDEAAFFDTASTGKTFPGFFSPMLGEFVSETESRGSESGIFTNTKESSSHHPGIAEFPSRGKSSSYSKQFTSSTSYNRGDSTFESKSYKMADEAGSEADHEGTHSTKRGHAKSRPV
T3 sequence (looked up) 2: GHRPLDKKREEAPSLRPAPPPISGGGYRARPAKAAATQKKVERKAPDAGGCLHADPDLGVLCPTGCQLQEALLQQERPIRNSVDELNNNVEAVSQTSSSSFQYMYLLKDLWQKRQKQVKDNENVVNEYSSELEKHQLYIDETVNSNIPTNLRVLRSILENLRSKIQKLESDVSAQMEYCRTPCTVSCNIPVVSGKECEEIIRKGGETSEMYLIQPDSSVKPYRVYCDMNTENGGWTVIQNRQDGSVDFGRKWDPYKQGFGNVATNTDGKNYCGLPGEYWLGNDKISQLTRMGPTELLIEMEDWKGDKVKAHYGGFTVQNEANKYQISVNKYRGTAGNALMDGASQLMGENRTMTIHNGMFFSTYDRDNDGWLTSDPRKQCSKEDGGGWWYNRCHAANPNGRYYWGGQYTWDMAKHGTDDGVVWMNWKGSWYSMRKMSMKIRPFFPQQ
T3 sequence (looked up) 3: T2 sequence (P02679 27-437 isoform P02679-2 limits assumed)
Description: dried fibrin plate, bound vs free peptide.

In assay [4] the target is T3, dried fibrin. Description: ratio of Kd for fibrinogen (equilibrium dialysis) to Kd for fibrin. The protocol:
as §1

Assay [5] addresses T4, fibrinogen (UniProt P02671 20-629; P02675 31-491; P02679 27-437, limits assumed).
T4 sequence (looked up) 1: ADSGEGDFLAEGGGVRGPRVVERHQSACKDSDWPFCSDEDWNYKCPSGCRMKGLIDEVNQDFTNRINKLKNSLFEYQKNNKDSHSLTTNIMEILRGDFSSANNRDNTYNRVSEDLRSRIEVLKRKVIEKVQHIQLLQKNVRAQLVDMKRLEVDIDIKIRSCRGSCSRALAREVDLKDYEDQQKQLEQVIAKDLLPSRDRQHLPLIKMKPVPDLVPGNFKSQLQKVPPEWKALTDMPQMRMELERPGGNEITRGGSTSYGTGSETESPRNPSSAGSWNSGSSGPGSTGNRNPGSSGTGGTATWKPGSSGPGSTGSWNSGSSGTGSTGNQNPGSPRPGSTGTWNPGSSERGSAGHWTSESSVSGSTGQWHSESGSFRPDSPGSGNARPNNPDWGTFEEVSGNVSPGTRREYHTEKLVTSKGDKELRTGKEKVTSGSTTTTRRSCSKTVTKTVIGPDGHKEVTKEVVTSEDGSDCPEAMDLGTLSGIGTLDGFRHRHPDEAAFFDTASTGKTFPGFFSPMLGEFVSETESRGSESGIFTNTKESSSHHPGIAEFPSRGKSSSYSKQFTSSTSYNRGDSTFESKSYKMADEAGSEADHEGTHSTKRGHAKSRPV
T4 sequence (looked up) 2: T2 sequence (P02675 31-491)
T4 sequence (looked up) 3: T2 sequence (P02679 27-437 isoform P02679-2 limits assumed)
Nature of the assay: equilibrium dialysis, fibrinogen 10 mg/ml, peptide by I.C.P. On the procedure:
as §1

Assay [6] concerns the target T5, fibrin of an in vitro clot formed from human blood plasma (human, UniProt P02671 36-629; P02675 45-491; P02679 27-437).
T5 construct: Plasma of a human donor clotted with CaCl2 in the presence of the peptide; also called in vitro blood clot
T5 sequence (looked up) 1: T3 sequence (looked up) 1
T5 sequence (looked up) 2: T3 sequence (looked up) 2
T5 sequence (looked up) 3: T2 sequence (P02679 27-437 isoform P02679-2 limits assumed)
Nature of the assay: human plasma clotted in the presence of peptide, free peptide by Gd I.C.P., bound vs free fit. On the procedure: Freshly drawn whole blood was obtained from a human donor and centrifuged at 4000×g for 15 minutes to remove the hematocrit. The blood plasma (supernatant) was removed and dispensed into ten 1.5 ml tubes, 500 μL/tube. The MR labeled peptide of Example 11, GdDTPA-Pep1, was added to each tube at increasing concentrations (2, 5, 8, 10, 15, 20, 30, 50, 75, 100 μM) along with PBS buffer (50 mM sodium phosphate, 150 mM NaCl, pH 7.4) to bring the total volume to 550 μL. The sample was equilibrated at 37° C. A small aliquot (50 μL) was removed for quantitating the total peptide added (measured by Gd I.C.P. analysis after dilution into 0.1 M HNO₃). Clotting was initiated by the addition of 5 μL 2 M CaCl₂, and the samples are incubated at 37° C. for 1 hour. The tubes were spun down briefly (5 sec) and the clot was removed with a pipet tip. The remaining supernatant (˜200 μL) was diluted in HNO₃ and the peptide concentration (equal to the concentration of unbound or free peptide) was measured by Gd I.C.P. analysis. The difference between the total and free peptide concentrations yields the concentration of bound peptide.

Bridge positions count the residues as written; N and C are the ends. Ends that are not written are not given here.

For `CC(C)C[C@H](NC(=O)[C@@H]1CSSC[C@H](NC(=O)[C@@H]2CCCN2C(=O)[C@H](CC(C)C)NC(=O)C[C@@H](C(=O)O)N(CCN(CC(=O)O)CC(=O)O)CCN(CC(=O)O)CC(=O)O)C(=O)N[C@@H](CC(=O)O)C(=O)N[C@@H](Cc2ccc(O)cc2)C(=O)N[C@@H](Cc2ccc(O)cc2)C(=O)NCC(=O)N[C@@H]([C@@H](C)O)C(=O)N1)C(=O)N[C@@H](CC(=O)O)C(N)=O` [Gd-DTPA-Pep1], the dissociation constant (Kd) – broadly, the concentration at which binding is half-saturated – in assay [1] came to 2.9 µM. Also, in assay [2], the “specificity for fibrin over fibrinogen” value is “roughly 70 fold”.

B1: Gd-DTPA-Pep1 (peptide)
peptide: LPCDYYGTCLD
modifications: disulfide 3-9 (inferred); not fully specified (N-terminus); also: Gd(III)-DTPA chelate, from DTPA-Asp(beta-COOH)-OtBu
For the molecule B1, the Kd in assay [3] is 7.4 µM; in assay [5] it was 190 µM; in assay [6] it was about 20 µM. In addition, the “specificity for fibrin over fibrinogen (fold)” value in assay [4] was about 70 fold.
